Test [1] has as its target glucose 6-phosphate dehydrogenase from Leuconostoc mesenteroides, guanidine-denatured (Leuconostoc mesenteroides) (UniProt P11411).
In test [2] the target is tobacco Trx f C19/71S double mutant, His-tagged (Nicotiana tabacum). Put plainly: non-reducing SDS-PAGE with Western blot. For orientation: Immunoblotting shows a protein as a band on a membrane.
Test [3] addresses tobacco Trx f C71S mutant, His-tagged (Nicotiana tabacum). Put plainly: non-reducing SDS-PAGE with Western blot.

UniProt P11411, sequence (P11411 whole entry): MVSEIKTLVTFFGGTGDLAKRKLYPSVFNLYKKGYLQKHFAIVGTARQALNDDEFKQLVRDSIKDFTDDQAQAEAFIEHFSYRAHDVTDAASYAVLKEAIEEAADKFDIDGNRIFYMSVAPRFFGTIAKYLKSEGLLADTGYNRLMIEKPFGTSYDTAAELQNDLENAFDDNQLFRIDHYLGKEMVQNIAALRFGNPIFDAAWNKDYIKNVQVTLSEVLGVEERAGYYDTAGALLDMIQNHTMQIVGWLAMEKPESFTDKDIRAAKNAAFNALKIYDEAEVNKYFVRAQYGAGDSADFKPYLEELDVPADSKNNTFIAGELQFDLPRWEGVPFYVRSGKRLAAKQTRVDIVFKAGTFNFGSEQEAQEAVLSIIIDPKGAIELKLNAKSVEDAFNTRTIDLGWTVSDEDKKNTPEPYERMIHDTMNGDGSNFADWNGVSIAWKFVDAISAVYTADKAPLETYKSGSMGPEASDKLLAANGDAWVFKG

As usually defined, the stoichiometry N is the number of molecules, sites or subunits per partner or assembly. Consider “tobacco Trx f C19/71S double mutant, His-tagged (enzyme)”, for which the chaperone foldase activity (G6PDH reactivation) relative to wild-type Trx f in test [1] turned out to be 80 % decrease. The stoichiometry N in test [2] turned out to be 2.

In test [1], “tobacco Trx f C71S mutant, His-tagged (enzyme)” yielded a chaperone foldase activity (G6PDH reactivation) relative to wild-type Trx f of 80 % decrease. The substance further gave a stoichiometry N in test [3] of 2.
